Values quoted from earlier work as cited in paper PMC9694239.

Biological target: CNG channel beta subunit CaM1 peptide CaM1 (Homo sapiens) (UniProt Q14028)
Sequence (Q14028 whole entry, looked up, tested part not stated): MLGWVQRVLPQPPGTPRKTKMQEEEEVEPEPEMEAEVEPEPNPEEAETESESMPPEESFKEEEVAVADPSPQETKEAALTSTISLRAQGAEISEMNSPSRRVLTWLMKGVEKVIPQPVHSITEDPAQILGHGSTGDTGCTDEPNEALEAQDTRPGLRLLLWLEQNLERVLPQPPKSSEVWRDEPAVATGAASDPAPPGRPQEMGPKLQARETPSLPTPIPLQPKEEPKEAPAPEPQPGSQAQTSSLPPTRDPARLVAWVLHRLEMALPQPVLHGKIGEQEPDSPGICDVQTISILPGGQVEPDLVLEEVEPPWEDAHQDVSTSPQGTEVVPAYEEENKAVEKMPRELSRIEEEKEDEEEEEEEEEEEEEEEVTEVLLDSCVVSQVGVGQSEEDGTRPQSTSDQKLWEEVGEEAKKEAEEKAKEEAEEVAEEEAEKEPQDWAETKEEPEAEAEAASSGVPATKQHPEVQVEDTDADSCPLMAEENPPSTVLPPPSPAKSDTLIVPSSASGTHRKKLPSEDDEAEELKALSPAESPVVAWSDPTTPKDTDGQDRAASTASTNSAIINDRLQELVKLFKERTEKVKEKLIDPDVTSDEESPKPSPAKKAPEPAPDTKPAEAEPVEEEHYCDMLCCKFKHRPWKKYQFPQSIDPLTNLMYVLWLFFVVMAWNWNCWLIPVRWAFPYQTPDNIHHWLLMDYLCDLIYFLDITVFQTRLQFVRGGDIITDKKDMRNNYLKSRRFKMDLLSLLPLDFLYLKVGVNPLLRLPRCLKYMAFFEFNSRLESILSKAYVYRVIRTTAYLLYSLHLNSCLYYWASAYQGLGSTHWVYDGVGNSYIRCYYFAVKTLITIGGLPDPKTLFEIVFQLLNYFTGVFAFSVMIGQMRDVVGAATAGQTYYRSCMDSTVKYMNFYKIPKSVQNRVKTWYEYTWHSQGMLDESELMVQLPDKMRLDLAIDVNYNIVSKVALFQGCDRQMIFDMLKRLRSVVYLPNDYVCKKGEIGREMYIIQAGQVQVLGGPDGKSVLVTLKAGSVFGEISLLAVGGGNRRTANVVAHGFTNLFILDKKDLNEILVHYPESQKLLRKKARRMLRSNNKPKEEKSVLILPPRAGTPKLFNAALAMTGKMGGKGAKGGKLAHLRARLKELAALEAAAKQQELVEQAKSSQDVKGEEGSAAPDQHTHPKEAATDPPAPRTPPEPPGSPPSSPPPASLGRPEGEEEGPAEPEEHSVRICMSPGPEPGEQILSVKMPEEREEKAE

For Calmodulin N-lobe (from UniProt P0DP23), the Kd is given as 5 µM.
